Measured values: patent publication US20250186614A1, “COMPACT DRUG RESPONSIVE DOMAINS FOR REGULATION OF FUNCTION/ABUNDANCE AND DELIVERY OF POLYPEPTIDE PAYLOADS” (OBSIDIAN THERAPEUTICS, INC., priority 2022, published 2025)
Substitutions are numbered along the chain they refer to. In names and notes the source's numbering stands.

B1: FKBP-084: FKBP13 trunc2 DRD Q72R, Q84E, A117H, M54A; SEQ ID NO: 34 (protein)
chain: PIKSRKGDVLHAHYTGKLEDGTEFDSSLPRNQPFVFSLGTGEVIKGWDQGLLGMCEGEKRKLVIPSELGYGERGHPPKIPGGATLVFEVELLKIER
modifications: truncated (trunc2); Description of sequence: FKBP13-AcGFP-mCherry Fusion; Construct Name: FKBP-084; FKBP13 DRD in Construct : FKBP13 trunc2 (mutated to match FKBP12 active site Q72R Q84E A117H) (DRD - M54A)
B2: FKBP-094: FKBP13 DRD Q72R, Q84E, A117H, P107S; SEQ ID NO: 44 (protein)
chain: HCPIKSRKGDVLHMHYTGKLEDGTEFDSSLPRNQPFVFSLGTGEVIKGWDQGLLGMCEGEKRKLVISSELGYGERGHPPKIPGGATLVFEVELLKIER
modifications: Description of sequence: FKBP13-AcGFP-mCherry Fusion; Construct Name: FKBP-094; FKBP13 DRD in Construct : FKBP13 (mutated to match FKBP12 active site Q72R Q84E A117H) (DRD - P107S)
B3: FKBP-123: FKBP13 DRD Q72R, Q84E, A117W, G49S; SEQ ID NO: 73 (protein)
chain: B2 chain with G9S, S67P, H77W
modifications: Description of sequence: FKBP13-AcGFP-mCherry Fusion; Construct Name: FKBP-123; FKBP13 DRD in Construct : FKBP13 (mutated to match FKBP12 active site Q72R Q84E A117W) (DRD G49S)
B4: FKBP-122: FKBP13 DRD Q72R, Q84E, A117H, I136V; SEQ ID NO: 72 (protein)
chain: B2 chain with S67P, I96V
modifications: Description of sequence: FKBP13-AcGFP-mCherry Fusion; Construct Name: FKBP-122; FKBP13 DRD in Construct : FKBP13 (mutated to match FKBP12 active site Q72R Q84E A117H) (DRD I136V)
B5: FKBP-095: FKBP13 DRD Q72R, Q84E, A117H, P122S; SEQ ID NO: 45 (protein)
chain: B2 chain with S67P, P82S
modifications: Description of sequence: FKBP13-AcGFP-mCherry Fusion; Construct Name: FKBP-095; FKBP13 DRD in Construct : FKBP13 (mutated to match FKBP12 active site Q72R Q84E A117H) (DRD - P122S)
B6: FKBP-129: FKBP13 DRD Q72R, Q84E, A117W, E98L; SEQ ID NO: 79 (protein)
chain: B2 chain with E58L, S67P, H77W
modifications: Description of sequence: FKBP13-AcGFP-mCherry Fusion; Construct Name: FKBP-129; FKBP13 DRD in Construct : FKBP13 (mutated to match FKBP12 active site Q72R Q84E A117W) (DRD E98L)
B7: FKBP-121: FKBP13 DRD Q72R, Q84E, A117W, I136V; SEQ ID NO: 71 (protein)
chain: B2 chain with S67P, H77W, I96V
modifications: Description of sequence: FKBP13-AcGFP-mCherry Fusion; Construct Name: FKBP-121; FKBP13 DRD in Construct : FKBP13 (mutated to match FKBP12 active site Q72R Q84E A117W) (DRD I136V)
B8: FKBP-131: FKBP13 DRD Q72R, Q84E, A117W, T126C; SEQ ID NO: 81 (protein)
chain: B2 chain with S67P, H77W, T86C
modifications: Description of sequence: FKBP13-AcGFP-mCherry Fusion; Construct Name: FKBP-131; FKBP13 DRD in Construct : FKBP13 (mutated to match FKBP12 active site Q72R Q84E A117W) (DRD T126C)
B9: FKBP-127: FKBP13 DRD Q72R, Q84E, A117W, F76Q; SEQ ID NO: 77 (protein)
chain: B2 chain with F36Q, S67P, H77W
modifications: Description of sequence: FKBP13-AcGFP-mCherry Fusion; Construct Name: FKBP-127; FKBP13 DRD in Construct : FKBP13 (mutated to match FKBP12 active site Q72R Q84E A117W) (DRD F76Q)
B10: FKBP-097: FKBP13 DRD Q72R, Q84E, A117H, E100S; SEQ ID NO: 47 (protein)
chain: B2 chain with E60S, S67P
modifications: Description of sequence: FKBP13-AcGFP-mCherry Fusion; Construct Name: FKBP-097; FKBP13 DRD in Construct : FKBP13 (mutated to match FKBP12 active site Q72R Q84E A117H) (DRD - E100S)
B11: FKBP-124: FKBP13 DRD Q72R, Q84E, A117H, G49S; SEQ ID NO: 74 (protein)
chain: B2 chain with G9S, S67P
modifications: Description of sequence: FKBP13-AcGFP-mCherry Fusion; Construct Name: FKBP-124; FKBP13 DRD in Construct : FKBP13 (mutated to match FKBP12 active site Q72R Q84E A117H) (DRD G49S)
B12: FKBP-130: FKBP13 DRD Q72R, Q84E, A117W, P107K; SEQ ID NO: 80 (protein)
chain: B2 chain with S67K, H77W
modifications: Description of sequence: FKBP13-AcGFP-mCherry Fusion; Construct Name: FKBP-130; FKBP13 DRD in Construct : FKBP13 (mutated to match FKBP12 active site Q72R Q84E A117W) (DRD P107K)
B13: FKBP-128: FKBP13 DRD Q72R, Q84E, A117W, H53L; SEQ ID NO: 78 (protein)
chain: B2 chain with H13L, S67P, H77W
modifications: Description of sequence: FKBP13-AcGFP-mCherry Fusion; Construct Name: FKBP-128; FKBP13 DRD in Construct : FKBP13 (mutated to match FKBP12 active site Q72R Q84E A117W) (DRD H53L)
B14: FKBP-132: FKBP13 DRD Q72R, Q84E, A117W, G92Y; SEQ ID NO: 82 (protein)
chain: B2 chain with G52Y, S67P, H77W
modifications: Description of sequence: FKBP13-AcGFP-mCherry Fusion; Construct Name: FKBP-132; FKBP13 DRD in Construct : FKBP13 (mutated to match FKBP12 active site Q72R Q84E A117W) (DRD G92Y)
B15: FKBP-126: FKBP13 DRD Q72R, Q84E, A117H, D62S; SEQ ID NO: 76 (protein)
chain: B2 chain with D22S, S67P
modifications: Description of sequence: FKBP13-AcGFP-mCherry Fusion; Construct Name: FKBP-126; FKBP13 DRD in Construct : FKBP13 (mutated to match FKBP12 active site Q72R Q84E A117H) (DRD D62S)
B16: FKBP-125: FKBP13 DRD Q72R, Q84E, A117W, D62S; SEQ ID NO: 75 (protein)
chain: B2 chain with D22S, S67P, H77W
modifications: Description of sequence: FKBP13-AcGFP-mCherry Fusion; Construct Name: FKBP-125; FKBP13 DRD in Construct : FKBP13 (mutated to match FKBP12 active site Q72R Q84E A117W) (DRD D62S)

System: Jurkat cells
Assay: Tacrolimus dose response of FKBP13-AcGFP-mCherry constructs stably transduced into Jurkat cells, GFP MFI by flow cytometry
Format: cell-based
Protocol: The regulation of AcGFP, from FKBP13-AcGFP-mCherry constructs, in Jurkat cells, was also studied. Jurkat Clone E6-1 cells were cultured in standard media (RPMI+GlutaMAX Supplement (Life Technologies, Carlsbad, CA Cat #61870127), Fetal Bovine Serum (FBS) (Life Technologies Cat #10-082-147)). Jurkat cells were transduced with lentivirus produced with each of FKBP-039, FKBP-040, FKBP-041, FKBP-042, FKBP-043, FKBP-044, or FKBP-045 constructs. Jurkat cells were transduced until they were 10-25% positive, as determined on day 5 post-transduction, by using mCherry as a transduction marker. […] The Geometric Mean Fluorescent Intensity (MFI) of GFP expression in mCherry+ cells was plotted and dose response curve fits were performed using Prism Software (San Diego, CA).
FKBP-091 was used as a comparative construct.
FIGS. 22-38 show the results of characterization of FKBP-160-292. […] FKBP-091 and FKBP-117 was used as a comparative control for FKBP-160-FKBP-255. FKBP-195 was used as a comparative control for FKBP-256-FKBP-275. FKBP-117, FPBP-195 and FKBP-251 were used as a comparative control for FKBP-276-FKBP-292.
FKBP mutants were cloned in a manner to make a fusion protein with AcGFP in order to assess FKBP mutant regulation by using AcGFP expression as a readout. […] Further iterative FKBP mutants (FKBP-256-FKBP-292) were constructed from these initial combinatorial mutants to see if we could further improve FKBP DRD properties.

[1] = tacrolimus dose response, Jurkat cells stably transduced (FIG. 10), Table 5
[2] = tacrolimus, Jurkat cells stably transduced, Table 6

Molecule | Fold Change [1] | Fold Change [2]
B1 | 12.42 | –
B2 | 13.5 | –
B3 | – | 48.38
B4 | – | 22.51
B5 | 31.4 | –
B6 | – | 17.11
B7 | – | 28.35
B8 | – | 21.30
B9 | – | 10.25
B10 | 36.75 | –
B11 | – | 40.13
B12 | – | 14.40
B13 | – | 31.75
B14 | – | 16.27
B15 | – | 25.70
B16 | – | 29.07
